From IntAct's records for PubMed 23624404

Biological target: rad51_yeast RAD51 (UniProt P25454)
Sequence (P25454 whole entry): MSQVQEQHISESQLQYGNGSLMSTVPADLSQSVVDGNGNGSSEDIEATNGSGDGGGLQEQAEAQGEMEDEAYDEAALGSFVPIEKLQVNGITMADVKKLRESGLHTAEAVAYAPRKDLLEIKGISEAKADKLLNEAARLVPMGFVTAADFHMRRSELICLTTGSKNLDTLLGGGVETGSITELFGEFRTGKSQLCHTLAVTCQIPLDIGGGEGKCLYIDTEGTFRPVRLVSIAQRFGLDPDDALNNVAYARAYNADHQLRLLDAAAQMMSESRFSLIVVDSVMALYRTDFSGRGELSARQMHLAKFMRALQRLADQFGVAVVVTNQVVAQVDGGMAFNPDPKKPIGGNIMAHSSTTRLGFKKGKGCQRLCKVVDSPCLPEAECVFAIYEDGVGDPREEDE

effect of a mutation on the interaction: decreasing interaction strength
Substance: DNA repair and recombination protein RAD52 (Saccharomyces cerevisiae) (from UniProt P06778) K10R;K11R;K220R
